Measurements published in PMC9352680, “A comprehensive thermodynamic model for RNA binding by the Saccharomyces cerevisiae Pumilio protein PUF4”.

T1: PUF4 RNA-binding domain (Saccharomyces cerevisiae, UniProt P25339 537-888)
T1 sequence: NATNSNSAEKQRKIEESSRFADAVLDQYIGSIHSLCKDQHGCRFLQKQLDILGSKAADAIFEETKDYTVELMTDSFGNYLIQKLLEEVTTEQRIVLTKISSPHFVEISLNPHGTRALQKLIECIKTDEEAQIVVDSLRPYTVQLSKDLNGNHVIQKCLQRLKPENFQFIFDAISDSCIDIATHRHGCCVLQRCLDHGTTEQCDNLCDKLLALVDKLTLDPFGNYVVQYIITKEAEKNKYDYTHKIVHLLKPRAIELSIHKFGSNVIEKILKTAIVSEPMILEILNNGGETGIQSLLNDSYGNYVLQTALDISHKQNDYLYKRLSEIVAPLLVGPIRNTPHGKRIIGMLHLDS


The binders below were run against T1, PUF4 RNA-binding domain (assay: Mg; RNA-MaP; 20 mM Na-HEPES pH 7.4, 30 mM KOAc, 0.75 mM MgCl2, 0.1% Tween-20, 5% glycerol, 0.1 mg/mL BSA, 2 mM DTT; 25 C; 0.0125-409.6 nM protein). Conditions: tags: N-His6-TEV cleaved; C-SNAP kept, Cy3B-labelled; label: tethered on chip by stalled RNA polymerase.

Row | Binder | Kd
1 | Ie_S2_P3E.2_K3.1_C3.2_[+-2CCC]_H3.1_A3.1_F3.1_T3.2 (ssRNA) RNA: UUUGAUUAAUAUGAUAUCGUUCUUUCUCCCCUUGUAUAUAUAUUCUUUCUCGAUAUCAUAUUAAUCUUU | 0.969 nM
2 | Ie_S2_P3E.2_K3.1_C3.2_H3.1_[+1TTT]_A3.1_F3.1_T3.2 (ssRNA) RNA: UUUGAUUAAUAUGAUAUCGUUCUUUCUCUUUUUGUAUAUAUAUUCUUUCUCGAUAUCAUAUUAAUCUUU | 1.33 nM
3 | Ie_S2_P3E.2_K3.1_C3.2_[+-1CCC]_H3.1_A3.1_F3.1_T3.2 (ssRNA) RNA: UUUGAUUAAUAUGAUAUCGUUCUUUCUCUCCCUGUAUAUAUAUUCUUUCUCGAUAUCAUAUUAAUCUUU | 0.662 nM
4 | Ie_S2_P3E.2_K3.1_C3.2_[+-2CCT]_H3.1_A3.1_F3.1_T3.2 (ssRNA) RNA: UUUGAUUAAUAUGAUAUCGUUCUUUCUCCCUUUGUAUAUAUAUUCUUUCUCGAUAUCAUAUUAAUCUUU | 1.07 nM
5 | Ie_S2_P3E.2_K3.1_C3.2_H3.1_[+1TCT]_A3.1_F3.1_T3.2 (ssRNA) RNA: UUUGAUUAAUAUGAUAUCGUUCUUUCUCUUUCUGUAUAUAUAUUCUUUCUCGAUAUCAUAUUAAUCUUU | 1.12 nM
6 | Ie_S2_P3E.2_K3.1_C3.2_[+-2CTC]_H3.1_A3.1_F3.1_T3.2 (ssRNA) RNA: UUUGAUUAAUAUGAUAUCGUUCUUUCUCCUCUUGUAUAUAUAUUCUUUCUCGAUAUCAUAUUAAUCUUU | 0.846 nM
7 | Ie_S2_P3E.2_K3.1_C3.2_[+-2TCC]_H3.1_A3.1_F3.1_T3.2 (ssRNA) RNA: UUUGAUUAAUAUGAUAUCGUUCUUUCUCUCCUUGUAUAUAUAUUCUUUCUCGAUAUCAUAUUAAUCUUU | 0.933 nM
8 | Ie_S2_P3E.2_K3.1_C3.2_[+-2TCT]_H3.1_A3.1_F3.1_T3.2 (ssRNA) RNA: UUUGAUUAAUAUGAUAUCGUUCUUUCUCUCUUUGUAUAUAUAUUCUUUCUCGAUAUCAUAUUAAUCUUU | 1.02 nM
9 | Ie_S2_P3E.2_K3.1_C3.2_H3.1_[+1CTT]_A3.1_F3.1_T3.2 (ssRNA) RNA: UUUGAUUAAUAUGAUAUCGUUCUUUCUCUUCUUGUAUAUAUAUUCUUUCUCGAUAUCAUAUUAAUCUUU | 1.32 nM
10 | Ie_S2_P3E.2_K3.1_C3.2_H3.1_[+1CCT]_A3.1_F3.1_T3.2 (ssRNA) RNA: UUUGAUUAAUAUGAUAUCGUUCUUUCUCUUCCUGUAUAUAUAUUCUUUCUCGAUAUCAUAUUAAUCUUU | 1.05 nM
11 | Ie_S2_P3E.2_K3.1_C3.2_[+-2TCTCT]_H3.1_A3.1_F3.1_T3.2 (ssRNA) RNA: UUUGAUUAAUAUGAUAUCGUUCUUUCUCUCUCUUUGUAUAUAUAUUCUUUCUCGAUAUCAUAUUAAUCUUU | 1.24 nM
12 | Ie_S2_P3E.2_K3.1_C3.2_[+-2CCCTT]_H3.1_A3.1_F3.1_T3.2 (ssRNA) RNA: UUUGAUUAAUAUGAUAUCGUUCUUUCUCCCCUUUUGUAUAUAUAUUCUUUCUCGAUAUCAUAUUAAUCUUU | 0.802 nM
13 | Ie_S2_P3E.2_K3.1_C3.2_[+-1CCTCT]_H3.1_A3.1_F3.1_T3.2 (ssRNA) RNA: UUUGAUUAAUAUGAUAUCGUUCUUUCUCUCCUCUUGUAUAUAUAUUCUUUCUCGAUAUCAUAUUAAUCUUU | 0.967 nM
14 | Ie_S2_P3E.2_K3.1_C3.2_[+-1TTCCT]_H3.1_A3.1_F3.1_T3.2 (ssRNA) RNA: UUUGAUUAAUAUGAUAUCGUUCUUUCUCUUUCCUUGUAUAUAUAUUCUUUCUCGAUAUCAUAUUAAUCUUU | 0.987 nM
15 | Ie_S2_P3E.2_K3.1_C3.2_[+-1TCTCT]_H3.1_A3.1_F3.1_T3.2 (ssRNA) RNA: UUUGAUUAAUAUGAUAUCGUUCUUUCUCUUCUCUUGUAUAUAUAUUCUUUCUCGAUAUCAUAUUAAUCUUU | 1.04 nM
16 | Ie_S2_P3E.2_K3.1_C3.2_[+-2CCTCT]_H3.1_A3.1_F3.1_T3.2 (ssRNA) RNA: UUUGAUUAAUAUGAUAUCGUUCUUUCUCCCUCUUUGUAUAUAUAUUCUUUCUCGAUAUCAUAUUAAUCUUU | 1.06 nM
17 | Ie_S2_P3E.2_K3.1_C3.2_[+-1CCCTT]_H3.1_A3.1_F3.1_T3.2 (ssRNA) RNA: UUUGAUUAAUAUGAUAUCGUUCUUUCUCUCCCUUUGUAUAUAUAUUCUUUCUCGAUAUCAUAUUAAUCUUU | 0.572 nM
18 | UCUCUUUGUAUUAUUUUCCAUCUCUU (ssRNA) [Ie_S1_P5E.1_K5.1_C5.1_H5.1_A5.1_F5.1_[+9TTCC]_T5.1] | 19.4 nM
19 | UCUCUUUGUAUUAUUCCCUAUCUCUU (ssRNA) [Ie_S1_P5E.1_K5.1_C5.1_H5.1_A5.1_F5.1_[+9CCCT]_T5.1] | 16.2 nM
20 | UCUCUUUGUAUUAUUCCCUUAUCUCUU (ssRNA) [Ie_S1_P5E.1_K5.1_C5.1_H5.1_A5.1_F5.1_[+9CCCTT]_T5.1] | 17.6 nM
21 | UCUCUUUGUAUUAUUAUCCUCUCUU (ssRNA) [Ie_S1_P5E.1_K5.1_C5.1_H5.1_A5.1_F5.1_[+10TCC]_T5.1] | 6.07 nM
22 | UCUCUUUGUAUUAUUAUUCUCUCUU (ssRNA) [Ie_S1_P5E.1_K5.1_C5.1_H5.1_A5.1_F5.1_[+10TTC]_T5.1] | 5.81 nM
23 | Ib_S2_P3E.1_K3.1_C3.1_H3.1_[A4G]_A3.1_F3.1_[A8T]_T3.1 (ssRNA) RNA: UUUGAUUAAUAUGAUAUCGUUCUUUCUUGUGUAUUUUCUUUCUCGAUAUCAUAUUAAUCUUU | 8.99 nM
24 | Ia_S2_P3E.1_K3.1_C3.1_H3.1_[G2C]_A3.1_F3.1_T3.1 (ssRNA) RNA: UUUGAUUAAUAUGAUAUCGUUCUUUCUUCUAUAUAUUCUUUCUCGAUAUCAUAUUAAUCUUU | 473 nM

Row | Binder | Kd
25 | Ib_S2_P3E.1_K3.1_C3.1_H3.1_A3.1_[T5C]_F3.1_[T7C]_T3.1 (ssRNA) RNA: UUUGAUUAAUAUGAUAUCGUUCUUUCUUGUACACAUUCUUUCUCGAUAUCAUAUUAAUCUUU | 22.4 nM
26 | Ic_S2_P3E.1_K3.1_C3.1_H3.1_A3.1_[T5A]_F3.1_[T7C]_T3.1 (ssRNA) RNA: UUUGAUUAAUAUGAUAUCGUUCUUUCUUGUAAACAUUCUUUCUCGAUAUCAUAUUAAUCUUU | 327 nM
27 | Ib_S2_P3E.1_K3.1_C3.1_H3.1_A3.1_[A6G]_F3.1_[T7C]_T3.1 (ssRNA) RNA: UUUGAUUAAUAUGAUAUCGUUCUUUCUUGUAUGCAUUCUUUCUCGAUAUCAUAUUAAUCUUU | 198 nM
28 | Ib_S2_P3E.1_K3.1_C3.1_H3.1_A3.1_[T5C]_F3.1_[T7A]_T3.1 (ssRNA) RNA: UUUGAUUAAUAUGAUAUCGUUCUUUCUUGUACAAAUUCUUUCUCGAUAUCAUAUUAAUCUUU | 58.4 nM
29 | Ie_S2_P3E.2_K3.1_C3.2_H3.1_[+1T]_A3.1_F3.1_T3.2 (ssRNA) RNA: UUUGAUUAAUAUGAUAUCGUUCUUUCUCUUUGUAUAUAUAUUCUUUCUCGAUAUCAUAUUAAUCUUU | 1.11 nM
30 | UCUCUUUGUAUUAUUAUCUCUUCUCUU (ssRNA) [Ie_S1_P5E.1_K5.1_C5.1_H5.1_A5.1_F5.1_[+10TCTCT]_T5.1] | 8.17 nM
31 | Ie_S2_P3E.2_K3.1_C3.2_[+-2CTCT]_H3.1_A3.1_F3.1_T3.2 (ssRNA) RNA: UUUGAUUAAUAUGAUAUCGUUCUUUCUCCUCUUUGUAUAUAUAUUCUUUCUCGAUAUCAUAUUAAUCUUU | 1.08 nM
32 | Ie_S2_P3E.2_K3.1_C3.2_[+-2CCCT]_H3.1_A3.1_F3.1_T3.2 (ssRNA) RNA: UUUGAUUAAUAUGAUAUCGUUCUUUCUCCCCUUUGUAUAUAUAUUCUUUCUCGAUAUCAUAUUAAUCUUU | 0.468 nM
33 | Ie_S2_P3E.2_K3.1_C3.2_[+-2CCTC]_H3.1_A3.1_F3.1_T3.2 (ssRNA) RNA: UUUGAUUAAUAUGAUAUCGUUCUUUCUCCCUCUUGUAUAUAUAUUCUUUCUCGAUAUCAUAUUAAUCUUU | 0.683 nM
34 | Ie_S2_P3E.2_K3.1_C3.2_[+-1CTCT]_H3.1_A3.1_F3.1_T3.2 (ssRNA) RNA: UUUGAUUAAUAUGAUAUCGUUCUUUCUCUCUCUUGUAUAUAUAUUCUUUCUCGAUAUCAUAUUAAUCUUU | 0.703 nM
35 | Ie_S2_P3E.2_K3.1_C3.2_[+-2TTCC]_H3.1_A3.1_F3.1_T3.2 (ssRNA) RNA: UUUGAUUAAUAUGAUAUCGUUCUUUCUCUUCCUUGUAUAUAUAUUCUUUCUCGAUAUCAUAUUAAUCUUU | 0.819 nM
36 | Ie_S2_P3E.2_K3.1_C3.2_[+-1CCTC]_H3.1_A3.1_F3.1_T3.2 (ssRNA) RNA: UUUGAUUAAUAUGAUAUCGUUCUUUCUCUCCUCUGUAUAUAUAUUCUUUCUCGAUAUCAUAUUAAUCUUU | 0.786 nM
37 | Ie_S2_P3E.2_K3.1_C3.2_[+-1TTCC]_H3.1_A3.1_F3.1_T3.2 (ssRNA) RNA: UUUGAUUAAUAUGAUAUCGUUCUUUCUCUUUCCUGUAUAUAUAUUCUUUCUCGAUAUCAUAUUAAUCUUU | 1.28 nM
38 | Ie_S2_P3E.2_K3.1_C3.2_H3.1_[+1CTCT]_A3.1_F3.1_T3.2 (ssRNA) RNA: UUUGAUUAAUAUGAUAUCGUUCUUUCUCUUCUCUGUAUAUAUAUUCUUUCUCGAUAUCAUAUUAAUCUUU | 0.882 nM
39 | UCUCUUUGUAUUAUUCCUCUAUCUCUU (ssRNA) [Ie_S1_P5E.1_K5.1_C5.1_H5.1_A5.1_F5.1_[+9CCTCT]_T5.1] | 14.3 nM
40 | UCUCUUUGUAUUAUUAUUUCUCUU (ssRNA) [Ie_S1_P5E.1_K5.1_C5.1_H5.1_A5.1_F5.1_[+10TT]_T5.1] | 6.42 nM
41 | Ie_S2_P3E.2_K3.1_C3.2_[+-2CC]_H3.1_A3.1_F3.1_T3.2 (ssRNA) RNA: UUUGAUUAAUAUGAUAUCGUUCUUUCUCCCUUGUAUAUAUAUUCUUUCUCGAUAUCAUAUUAAUCUUU | 1.07 nM
42 | Ie_S2_P3E.2_K3.1_C3.2_[+-1CC]_H3.1_A3.1_F3.1_T3.2 (ssRNA) RNA: UUUGAUUAAUAUGAUAUCGUUCUUUCUCUCCUGUAUAUAUAUUCUUUCUCGAUAUCAUAUUAAUCUUU | 0.923 nM
43 | Ie_S2_P3E.2_K3.1_C3.2_H3.1_[+1TT]_A3.1_F3.1_T3.2 (ssRNA) RNA: UUUGAUUAAUAUGAUAUCGUUCUUUCUCUUUUGUAUAUAUAUUCUUUCUCGAUAUCAUAUUAAUCUUU | 1.22 nM
44 | UCUCUUUGUAUUAUUAUCUCUCUU (ssRNA) [Ie_S1_P5E.1_K5.1_C5.1_H5.1_A5.1_F5.1_[+10TC]_T5.1] | 4.34 nM
45 | UCUCUUUGUAUUAUUUCUCUAUCUCUU (ssRNA) [Ie_S1_P5E.1_K5.1_C5.1_H5.1_A5.1_F5.1_[+9TCTCT]_T5.1] | 14 nM
46 | UCUCUUUGUAUUAUUUUCCUAUCUCUU (ssRNA) [Ie_S1_P5E.1_K5.1_C5.1_H5.1_A5.1_F5.1_[+9TTCCT]_T5.1] | 22.3 nM
47 | UCUCUUUGUAUUAUUAUUCCUCUCUU (ssRNA) [Ie_S1_P5E.1_K5.1_C5.1_H5.1_A5.1_F5.1_[+10TTCC]_T5.1] | 4.65 nM
